The target of assay [1] is T1, recombinant SARS-CoV-2 RBD protein (wild-type) (SARS-CoV-2; human, UniProt P0DTC2 306-543).
T1 construct: range 306-543
Kind of assay: ELISA (FIG. 18A).

The target of assay [2] is T1, recombinant SARS-CoV-2 RBD protein …. Kind of assay: ELISA (FIG. 18C). A general note: ELISA stands for enzyme-linked immunosorbent assay.
For assay [3] the target is unchanged. Kind of assay: ELISA (FIG. 18B).
Assay [4] shares this target. The assay can be described thus: ELISA (FIG. 18E).

B1: A-1H4 antibody (format in FIG. 18 not stated) (antibody, V domains shown)
VH: EVQLVESGGGLVQPGRSLRLSCAASGFTVSSNYMSWVRQAPGKGLEWVSGIYSGGSTYYADSVKGRFTISRDNSKNTLYLQMNSLRAEDTAVYYCARDLQEAGAFDIWGQGTMVTVSS
VL: ELQLTQSPSFLSASVGDRVTITCRASQGISSYLAWYQQKPGKAPKLLIYAASTLQSGVPSRFSGSGSGTEFTLTISSLQPEDFATYYCQQLNSYPRLTFGGGTKVEIK
Regarding B1, the binding result in assay [1] was “binds”.

B2: A-2H4 antibody (format in FIG. 18 not stated) (antibody, V domains shown)
VH: QMQLVESGGGLVQPGRSLRLSCAASGFTFSVYGMHWVRQAPGKGLEWVAVISYDGSNKYYADSVKGRFSISRDNSKNTLYLQMNSLRGEDTAVYYCAKGGPRPVVKAYGELDYYGMDVWGQGTTVTVSS
VL: ELALTQPASVSGSPGQSITISCTGTSSDIGGYEYVSWYQQHPGKAPKLIIYDVRDRPSGISNRFSGSKSGNTASLIISSLQAGDEADYYCFSYTSSGTYVFGSATKVTVL
As to B2, the binding result in assay [2] is given as “binds”.

B3: A-2F1 antibody (format in FIG. 18 not stated) (antibody, V domains shown)
VH: QVQLVQSGGGLIQPGGSLRLSCAASGVTVSSNYMSWVRQAPGKGLEWVSVIYSGGSTFYADSVKGRFTISRDNSKNTLYLQMNSLRAEDTAVYYCARDLMEAGGMDVWGQGSTVTVSS
VL: ELALTQPPSASGSPGQSVTISCTASSSDIGASNHVAWYQQNPGKAPKLMIYGVSGRPSGVPDRFSGSKSGNTASLTVSGLQAEDEADYYCSSYAGSNILIFGGGTKLTVL
On to B3, for which the binding result in assay [3] is “binds”.

B4: E-3G9 antibody (format in FIG. 18 not stated) (antibody, V domains shown)
VH: QMQLVQSGAEVKKPGASVKVSCKASGHTITSYYMHWVRQAPGQGLEWMGIINPSGGSTSYAQKFQGRVTMTRDTSTSTVYMELSSLRSEDTAVYYCAREGVWDSSGYSSFDYWGQGTLVTVSS
VL: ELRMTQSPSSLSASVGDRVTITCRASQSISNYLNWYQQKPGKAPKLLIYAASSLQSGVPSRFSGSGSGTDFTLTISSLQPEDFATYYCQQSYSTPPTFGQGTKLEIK
Turning to B4, the binding result in assay [4] is on record as “binds”.
